The target in experiment [1] is T1, CD138 expressed on the cell surface (OPM-2 cells, MOLP-8 cells) (human, UniProt P18827 23-310).
T1 construct: whole, on cells; also called syndecan-1; CD138+ OPM-2
T1 sequence (looked up): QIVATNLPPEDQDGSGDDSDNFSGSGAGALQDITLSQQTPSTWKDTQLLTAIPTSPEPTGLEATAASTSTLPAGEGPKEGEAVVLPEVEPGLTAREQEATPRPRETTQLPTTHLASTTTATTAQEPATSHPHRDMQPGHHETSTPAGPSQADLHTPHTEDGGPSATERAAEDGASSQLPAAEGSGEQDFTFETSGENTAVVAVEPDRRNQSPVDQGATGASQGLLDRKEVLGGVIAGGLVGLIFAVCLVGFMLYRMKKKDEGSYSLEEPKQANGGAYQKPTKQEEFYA
The experiment can be described thus: FACS on CD138+ OPM-2 cells, fluorescence-labeled secondary antibody, mean fluorescence against concentration. From the text:
The mean fluorescence measured in these experiments was plotted against the antibody concentration.
In FIG. 6, the mean fluorescences as measure for the amount of cell bound antibody is plotted against different antibody or conjugate concentrations.

Experiment [2] deals with T2, Soluble CD138 antigen purified from U-266 cell culture supernatant, biotinylated (human, UniProt P18827 23-245, limits assumed, biotinylated with Sulfo-NHS-LC-Biotin on primary amino groups (lysine residues); positions not stated).
T2 construct: Natural soluble (shed) CD138 captured on a streptavidin sensor chip; also called bCD138; biotinylated CD138
T2 sequence (looked up): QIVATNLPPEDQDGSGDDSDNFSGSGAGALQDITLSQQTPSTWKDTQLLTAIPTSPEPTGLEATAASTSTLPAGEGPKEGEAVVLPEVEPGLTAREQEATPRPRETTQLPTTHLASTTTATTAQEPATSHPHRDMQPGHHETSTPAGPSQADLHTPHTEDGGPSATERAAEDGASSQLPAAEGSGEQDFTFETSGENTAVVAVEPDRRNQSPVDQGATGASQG
The experiment can be described thus: SPR (BIACORE C), biotinylated CD138 on SA chip, conjugate as analyte; single experiment. Background: In SPR one partner is held on a chip, and binding of the other changes the refractive index at the surface.

For experiment [3], the target named is T2, Soluble CD138 antigen purified from …. In words: SPR (BIACORE C), biotinylated CD138 on SA chip, conjugate as analyte; mean of three experiments, +/- SD.

Several values for one entry are separate records, joined by “and”; a condition that tells them apart may be missing. Equal values may be shown once.

For orientation: EC50 (read off the curve) means the concentration at which the effect is half-maximal. Usually Kd stands for the concentration at which binding is half-saturated.

B1: nBT062-SPP-DM1 (antibody, V domains shown)
VH: QVQLQQSGSELMMPGASVKISCKATGYTFSNYWIEWVKQRPGHGLEWIGEILPGTGRTIYNEKFKGKATFTADISSNTVQMQLSSLTSEDSAVYYCARRDYYGNFYYAMDYWGQGTSVTVSS
VL: DIQMTQSTSSLSASLGDRVTISCSASQGINNYLNWYQQKPDGTVELLIYYTSTLQSGVPSRFSGSGSGTDYSLTISNLEPEDIGTYYCQQYSKLPRTFGGGTKLEIKR
As to B1, the “EC50 (read off the curve)” value in experiment [1] is roughly 1 nM.

B2: nBT062-SMCC-DM1 (antibody, V domains shown)
VH: B1 VH
VL: B1 VL
In the case of B2, the “EC50 (read off the curve)” value in experiment [1] was roughly 1 nM.

B3: nBT062 (antibody, human IgG4, kappa, V domains shown)
VH: B1 VH
VL: B1 VL
notes: also called cB-B4; chimeric B-B4
As for B3, the “EC50 (read off the curve)” value in experiment [1] is roughly 1 nM.

B4: B-B4-SPP-DM1 (antibody, V domains shown)
VH: B1 VH
VL: DIQMTQSTSSLSASLGDRVTISCSASQGINNYLNWYQQKPDGTVELLIYYTSTLQSGVPSRFSGSGSGTDYSLTISNLEPEDIGTYYCQQYSKLPRTFGGGTKLEIK
For B4, the Kd in experiment [2] is 2.6 nM and 2.7 nM; in experiment [3], 2.6 nM.

Values taken from patent US20090175863A1 (BIOTEST, published 2009).
